Assay results: publication PMC10397247
Like-named read-outs stand apart in the source and are kept apart here.

What was measured:
Experiment in all cases: two-hybrid library CCmax;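 also: natural log of median RNA to DNA barcode read ratio; higher means stronger binding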
4H_BCR = biological target: T1, 4H_BCR; details: mean of both orientations
T1 chain: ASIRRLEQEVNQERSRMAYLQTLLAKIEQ

O6-AA = biological target: T2, O6-AA; details: mean of both orientations
T2 chain: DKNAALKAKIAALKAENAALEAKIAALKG

4H_APH = biological target: T3, 4H_APH; details: mean of both orientations
T3 chain: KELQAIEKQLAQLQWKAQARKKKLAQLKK

4H3905-AA = biological target: T4, 4H3905-AA; details: mean of both orientations
T4 chain: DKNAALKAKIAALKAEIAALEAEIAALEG

GCN2_T = details: mean of both orientations
4H43-AA = biological target: T5, 4H43-AA; details: mean of both orientations
T5 chain: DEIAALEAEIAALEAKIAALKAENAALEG

O3-AA = biological target: T6, O3-AA; details: mean of both orientations
T6 chain: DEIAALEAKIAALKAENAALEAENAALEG

4H_GCN4 = biological target: 4H_GCN4
4H_GCN4, sequence (chain, as listed by the source): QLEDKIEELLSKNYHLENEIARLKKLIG

O2-AA = biological target: T7, O2-AA; details: mean of both orientations
T7 chain: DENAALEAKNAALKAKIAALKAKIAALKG

4H510-AA = biological target: T8, 4H510-AA; details: mean of both orientations
T8 chain: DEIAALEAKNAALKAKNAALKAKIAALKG

O4-AA = biological target: T9, O4-AA; details: mean of both orientations
T9 chain: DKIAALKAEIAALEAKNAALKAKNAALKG

O7-AA = biological target: T10, O7-AA; details: mean of both orientations
T10 chain: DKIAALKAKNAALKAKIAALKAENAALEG

O13-AA = biological target: T11, O13-AA; details: mean of both orientations
T11 chain: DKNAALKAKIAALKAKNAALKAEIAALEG

4H982-AA = biological target: T12, 4H982-AA; details: mean of both orientations
T12 chain: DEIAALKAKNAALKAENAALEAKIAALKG

P9-AA = biological target: T13, P9-AA; details: mean of both orientations
T13 chain: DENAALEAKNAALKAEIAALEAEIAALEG

O1-AA = biological target: T14, O1-AA; details: mean of both orientations
T14 chain: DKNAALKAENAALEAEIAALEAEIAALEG

4H384-AA = biological target: T15, 4H384-AA
T15 chain: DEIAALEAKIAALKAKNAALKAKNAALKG

P10-AA = biological target: T16, P10-AA; details: mean of both orientations
T16 chain: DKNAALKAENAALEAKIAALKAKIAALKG

4H697-AA = biological target: T17, 4H697-AA; details: mean of both orientations
T17 chain: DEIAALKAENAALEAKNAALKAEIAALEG

O14-AA = biological target: T18, O14-AA; details: mean of both orientations
T18 chain: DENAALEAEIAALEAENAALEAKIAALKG

O11-AA = biological target: T19, O11-AA; details: mean of both orientations
T19 chain: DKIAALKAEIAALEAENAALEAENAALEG

4H3865-AA = biological target: T20, 4H3865-AA; details: mean of both orientations
T20 chain: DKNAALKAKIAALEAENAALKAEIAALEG

O8-AA = biological target: T21, O8-AA; details: mean of both orientations
T21 chain: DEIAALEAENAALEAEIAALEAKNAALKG

O5-AA = biological target: T22, O5-AA; details: mean of both orientations
T22 chain: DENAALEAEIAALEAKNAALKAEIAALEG

4H4038-AA = biological target: T23, 4H4038-AA; details: mean of both orientations
T23 chain: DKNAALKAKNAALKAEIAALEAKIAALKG

4H451-AA = biological target: T24, 4H451-AA; details: mean of both orientations
T24 chain: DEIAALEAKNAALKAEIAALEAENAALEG

4H3753-AA = biological target: T25, 4H3753-AA; details: mean of both orientations
T25 chain: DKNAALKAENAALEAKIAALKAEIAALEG

4H3120-AA = biological target: T26, 4H3120-AA; details: mean of both orientations
T26 chain: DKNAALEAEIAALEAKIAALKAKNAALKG

4H3381-AA = biological target: T27, 4H3381-AA; details: mean of both orientations
T27 chain: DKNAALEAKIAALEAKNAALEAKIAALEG

4H570-AA = biological target: T28, 4H570-AA; details: mean of both orientations
T28 chain: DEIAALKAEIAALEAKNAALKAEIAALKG

4H310-AA = biological target: T29, 4H310-AA; details: mean of both orientations
T29 chain: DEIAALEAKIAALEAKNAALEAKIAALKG

4H629-AA = biological target: T30, 4H629-AA; details: mean of both orientations
T30 chain: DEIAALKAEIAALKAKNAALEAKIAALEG

4H3130-AA = biological target: T31, 4H3130-AA; details: mean of both orientations
T31 chain: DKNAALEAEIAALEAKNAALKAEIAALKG

4H3165-AA = biological target: T32, 4H3165-AA; details: mean of both orientations
T32 chain: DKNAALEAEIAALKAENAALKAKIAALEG

4H485-AA = biological target: T33, 4H485-AA; details: mean of both orientations
T33 chain: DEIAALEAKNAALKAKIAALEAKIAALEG

4H930-AA = biological target: T34, 4H930-AA; details: mean of both orientations
T34 chain: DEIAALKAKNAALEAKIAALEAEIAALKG

4H3395-AA = biological target: T35, 4H3395-AA; details: mean of both orientations
T35 chain: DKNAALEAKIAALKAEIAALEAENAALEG

4H3590-AA = biological target: T36, 4H3590-AA; details: mean of both orientations
T36 chain: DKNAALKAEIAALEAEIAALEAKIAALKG

4H710-AA = biological target: T37, 4H710-AA; details: mean of both orientations
T37 chain: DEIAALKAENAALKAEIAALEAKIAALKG

4H3697-AA = biological target: T38, 4H3697-AA; details: mean of both orientations
T38 chain: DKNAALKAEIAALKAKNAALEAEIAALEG

4H891-AA = biological target: T39, 4H891-AA; details: mean of both orientations
T39 chain: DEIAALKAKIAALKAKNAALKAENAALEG

4H850-AA = biological target: T40, 4H850-AA; details: mean of both orientations
T40 chain: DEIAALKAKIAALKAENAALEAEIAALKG

4H94-AA = biological target: T41, 4H94-AA; details: mean of both orientations
T41 chain: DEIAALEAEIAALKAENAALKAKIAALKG

4H536-AA = biological target: T42, 4H536-AA; details: mean of both orientations
T42 chain: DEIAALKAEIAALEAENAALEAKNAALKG

4H3410-AA = biological target: T43, 4H3410-AA; details: mean of both orientations
T43 chain: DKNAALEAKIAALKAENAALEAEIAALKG

4H745-AA = biological target: T44, 4H745-AA; details: mean of both orientations
T44 chain: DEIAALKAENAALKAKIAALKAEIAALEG

4H3016-AA = biological target: T45, 4H3016-AA
T45 chain: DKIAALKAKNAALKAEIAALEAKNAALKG

4H797-AA = biological target: T46, 4H797-AA; details: mean of both orientations
T46 chain: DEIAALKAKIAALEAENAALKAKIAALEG

4H458-AA = biological target: T47, 4H458-AA; details: mean of both orientations
T47 chain: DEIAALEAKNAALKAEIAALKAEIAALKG

4H909-AA = biological target: T48, 4H909-AA; details: mean of both orientations
T48 chain: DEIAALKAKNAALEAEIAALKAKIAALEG

## DEIAALEAKIAALKAKNAALKAKNAALKG [4H384-AA]
4H_BCR
  interaction score: -2.23
O6-AA
  interaction score: -0.52
4H_APH
  interaction score: -1.66
4H3905-AA
  interaction score: 0.75
GCN2_T
  interaction score: -1.61
4H43-AA
  interaction score: 0.71
O3-AA
  interaction score: 1.52
4H_GCN4
  interaction score: -2.22
O2-AA
  interaction score: -1.68
4H510-AA
  interaction score: -1.55
O4-AA
  interaction score: -0.235
O7-AA
  interaction score: -1.59
O13-AA
  interaction score: -1.52
4H982-AA
  interaction score: -1.63
P9-AA
  interaction score: -0.334
O1-AA
  interaction score: -1.04
4H384-AA
  interaction score: -1.34
P10-AA
  interaction score: -1.12
4H697-AA
  interaction score: -1.86
O14-AA
  interaction score: 0.835
O11-AA
  interaction score: 2.48
4H3865-AA
  interaction score: -0.294
O8-AA
  interaction score: 0.295
O5-AA
  interaction score: -0.778
4H4038-AA
  interaction score: -1.15
4H451-AA
  interaction score: -0.0732

## DKIAALKAKNAALKAEIAALEAKNAALKG [4H3016-AA]
4H3753-AA
  interaction score: 0.667
4H3120-AA
  interaction score: -1.33
4H3381-AA
  interaction score: -1.11
4H570-AA
  interaction score: -1.4
O6-AA
  interaction score: 0.964
4H310-AA
  interaction score: -0.901
O3-AA
  interaction score: -0.74
4H629-AA
  interaction score: -1.28
4H3130-AA
  interaction score: -0.405
4H3165-AA
  interaction score: -1.17
O2-AA
  interaction score: -1.29
4H485-AA
  interaction score: -0.786
O4-AA
  interaction score: -1.64
O7-AA
  interaction score: 0.0246
4H930-AA
  interaction score: -1.32
4H3395-AA
  interaction score: -1.1
O13-AA
  interaction score: -1.87
4H3590-AA
  interaction score: 0.669
4H710-AA
  interaction score: -1.35
4H3697-AA
  interaction score: -0.432
P9-AA
  interaction score: -0.637
O1-AA
  interaction score: -0.276
4H891-AA
  interaction score: -1.63
4H384-AA; mean of both orientations
  interaction score: -1.89
4H850-AA
  interaction score: -0.436
P10-AA
  interaction score: -0.503
4H94-AA
  interaction score: -0.745
4H536-AA
  interaction score: -0.944
4H3410-AA
  interaction score: 0.759
O14-AA
  interaction score: 2
O11-AA
  interaction score: -1.4
4H745-AA
  interaction score: 0.997
4H3016-AA
  interaction score: -1.56
4H797-AA
  interaction score: -1.65
4H3865-AA
  interaction score: -1.38
O8-AA
  interaction score: 1.56
4H458-AA
  interaction score: -1.13
O5-AA
  interaction score: -0.896
4H909-AA
  interaction score: -0.857
